# In US8663912B2, “Fluorogenic substrate for ADAMTS13” (Washington University, priority 2011, dated 2014):
# * marks the point of attachment. X1 = CC1(C)C(/C=C/C2=C(Cl)C(=C/C=C3/N(CCCCCC(=O)*)c4ccc5cc(S(=O)(=O)O)ccc5c4C3(C)C)/CCC2)=[N+](CCCS(=O)(=O)[O-])c2ccc(N(CCCS(=O)(=O)O)CCCS(=O)(=O)O)cc21; X2 = CC(C)(C)c1cc(/C=C/C=C2\N(CCCS(=O)(=O)O)c3ccc(S(=O)(=O)O)cc3C2(C)CCCC(=O)CCN2C(=O)CC(*)C2=O)c2ccc(N(CCCS(=O)(=O)[O-])CCCS(=O)(=O)O)cc2[o+]1
# What was measured:
# [1] = Solubility of substrate in water; type: physicochemical; conditions: sodium salt
# Excerpt: The present inventors have tested several combinations of donor and quencher groups chosen for lack of interference from blood proteins. For example, modification at Cys^1610 with Alexa Fluor 594 maleimide (abs 590 nm, em 617 nm, ε 96,000) and at N-terminal. […] In one embodiment, a substrate of the present teachings is modified at Cys^1610 with DyLight 633-maleimide (Thermo, abs 638 nm, em 658 nm, ε 170,000), and at N-terminal Gly with IRDye QC-1 N-hydroxysuccinimidyl ester (LI-COR, abs 737 nm, ε 96,000). […] After RP-HPLC purification the doubly-labeled substrate (FRETS-rVWF71) is soluble at >50 μM.
# In these experiments, DyLight 633 maleimide (Thermo Scientific, Waltham, Mass.) 1 mg/100 μL in dimethyl sulfoxide (DMSO) was added dropwise with stirring to peptide VWF71 (10 mg) in ≦2 mL of 100 mM sodium phosphate, pH 7.1, in the dark, and stirred overnight at room temperature. The product DyLight 633-rVWF71 was purified by HPLC on C18 using the TEAA/acetonitrile solvent system as described for the purification of VWF71. DyLight 633-rVWF71 was lyophilized and desalted on a small column of PD-10 in ≦2 mL of 100 mM sodium phosphate, pH 7.9. IRDye QC-1 N-hydroxysuccinimide ester 0.5 mg in 100 μL DMSO was added dropwise with stirring and the solution was stirred overnight at room temperature protected from light. […]
# [2] = target: T1, plasma ADAMTS13 (Homo sapiens, UniProt Q76LX8); experiment: Kinetics of FRETS-rVWF71 cleavage by plasma ADAMTS13 (Michaelis-Menten); type: biochemical
# T1 construct: from tissue; host or cells: human plasma or serum (pooled normal plasma, healthy donors, TTP patients)
# T1 sequence (Q76LX8 75-1427): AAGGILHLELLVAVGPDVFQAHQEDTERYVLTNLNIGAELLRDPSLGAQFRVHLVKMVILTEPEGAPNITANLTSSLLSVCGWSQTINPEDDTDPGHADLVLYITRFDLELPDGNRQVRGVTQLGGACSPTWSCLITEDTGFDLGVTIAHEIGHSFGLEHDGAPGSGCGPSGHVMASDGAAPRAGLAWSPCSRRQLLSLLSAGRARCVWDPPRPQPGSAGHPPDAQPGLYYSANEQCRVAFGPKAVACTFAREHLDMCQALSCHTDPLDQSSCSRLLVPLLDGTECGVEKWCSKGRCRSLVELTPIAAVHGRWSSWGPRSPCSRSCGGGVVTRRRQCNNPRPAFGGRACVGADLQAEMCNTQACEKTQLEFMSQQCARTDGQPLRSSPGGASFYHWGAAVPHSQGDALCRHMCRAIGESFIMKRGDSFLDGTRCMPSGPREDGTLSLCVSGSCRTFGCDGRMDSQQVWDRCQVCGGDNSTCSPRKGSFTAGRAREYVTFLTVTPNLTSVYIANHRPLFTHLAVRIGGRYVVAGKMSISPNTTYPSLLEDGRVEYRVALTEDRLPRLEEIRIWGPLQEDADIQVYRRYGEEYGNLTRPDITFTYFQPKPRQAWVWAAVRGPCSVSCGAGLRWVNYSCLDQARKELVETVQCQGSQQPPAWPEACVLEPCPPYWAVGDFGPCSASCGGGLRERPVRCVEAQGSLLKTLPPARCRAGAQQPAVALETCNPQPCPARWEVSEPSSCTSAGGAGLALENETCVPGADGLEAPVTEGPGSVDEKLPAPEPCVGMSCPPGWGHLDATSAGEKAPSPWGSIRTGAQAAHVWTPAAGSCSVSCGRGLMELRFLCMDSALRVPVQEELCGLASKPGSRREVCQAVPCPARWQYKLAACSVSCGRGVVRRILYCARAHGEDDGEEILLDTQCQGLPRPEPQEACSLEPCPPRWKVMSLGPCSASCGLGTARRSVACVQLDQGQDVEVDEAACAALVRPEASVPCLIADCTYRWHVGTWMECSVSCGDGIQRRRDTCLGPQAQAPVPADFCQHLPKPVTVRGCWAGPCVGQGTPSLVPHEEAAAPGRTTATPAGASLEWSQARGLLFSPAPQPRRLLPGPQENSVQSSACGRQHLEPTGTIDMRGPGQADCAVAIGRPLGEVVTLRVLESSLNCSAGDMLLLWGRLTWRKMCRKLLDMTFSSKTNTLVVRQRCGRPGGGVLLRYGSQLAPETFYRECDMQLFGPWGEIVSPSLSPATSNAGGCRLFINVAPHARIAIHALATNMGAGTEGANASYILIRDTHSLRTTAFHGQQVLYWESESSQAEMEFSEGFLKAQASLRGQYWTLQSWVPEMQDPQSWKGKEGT
# Procedure: In these experiments, FRETS-rVWF71 cleavage by plasma ADAMTS13 (50 μL) was assessed in 200 μL reactions containing 50 mM HEPES, pH 7.4, 10 mM CaCl2, 150 mM NaCl, and 0.05% Tween-20, and varying concentrations of FRETS-rVWF71. The concentration of ADAMTS13 in PNP is ˜1.03 μg/ml (Feys, H. B., et al. J. Thromb. Haemost 4:955-62, 2006), or ˜6 nM for a molecular mass of 170 kDa. For each concentration of substrate, the relationship between product fluorescence and concentration was determined directly by cleaving FRETS-rVWF71 to completion with excess recombinant ADAMTS13 MDTCS (Feys, H. B., et al. J. Thromb. Haemost. 7:2088-95, 2009) and measuring the fluorescence. Control assays contained plasma that was completely deficient in ADAMTS13. The initial velocities (nM/min) as a function of substrate concentration were fitted to the Michealis-Menten equation by nonlinear regression analysis (Prism, GraphPad).
# (FIG. 6). […] (Anderson, P. J., et al. J. Biol. Chem. 281:850-7, 2006).
substance,measurement,setting,value
X1-GQAPNLVYMVTGC(X2)PASDEIRRLPGDIQVVPIGVGPNANVQELERIGWPNAPILIQDFETLPREAPDLVLQR [FRETS-rVWF71],solubility,[1],> 250 µM
same,decrease of the rate of catalysis relative to FRETS-VWF73,[2]; kcat compared with FRETS-VWF73,~8 fold
same,kcat,"[2]; plasma ADAMTS13, 50 mM HEPES pH 7.4, 10 mM CaCl2, 150 mM NaCl, 30° C.",0.113 s⁻¹
